Measurements: US20250346659A1 (ELASMOGEN, published 2025)

Assays:
[1] = molecular target: T1, human Tumour Necrosis Factor alpha (human, UniProt P01375 77-233); assay: binding ELISA on 1 µg/ml hTNF-α, absorbance at 450 nm
T1 construct: Amine-coupled to the chip for BIAcore, biotinylated on streptavidin sensors for Octet, coated at 1 µg/ml for ELISA; also called hTNFα; rhTNFα

mouse ICOS ligand = molecular target: T2, mouse ICOS ligand (mouse, UniProt Q9JHJ8 47-279, limits assumed); assay: mICOSL neutralisation assay (lower right panel): blocking of mICOSL binding to its CHO-expressed receptor, absorbance at 450 nm
T2 construct: it may be the same Fc chimera as m48; also called mICOSL
T2 sequence (looked up): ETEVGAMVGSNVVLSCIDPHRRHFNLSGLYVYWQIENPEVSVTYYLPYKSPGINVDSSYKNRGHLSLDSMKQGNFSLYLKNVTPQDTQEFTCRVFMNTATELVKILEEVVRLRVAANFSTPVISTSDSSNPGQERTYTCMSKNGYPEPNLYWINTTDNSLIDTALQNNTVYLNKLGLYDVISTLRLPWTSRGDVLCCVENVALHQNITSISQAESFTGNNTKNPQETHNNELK

[2] = molecular target: T1, human Tumour Necrosis Factor alpha; assay: binding ELISA on TNFα (Anti-TNF NAR Dimers Binding ELISA, post dialysis), absorbance at 450 nm
human ICOS ligand = molecular target: T3, human ICOS ligand (human, UniProt O75144 19-258, limits assumed); assay: hICOSL neutralisation assay (lower left panel): blocking of hICOSL binding to its CHO-expressed receptor, absorbance at 450 nm
T3 construct: also called hICOSL
T3 sequence (looked up): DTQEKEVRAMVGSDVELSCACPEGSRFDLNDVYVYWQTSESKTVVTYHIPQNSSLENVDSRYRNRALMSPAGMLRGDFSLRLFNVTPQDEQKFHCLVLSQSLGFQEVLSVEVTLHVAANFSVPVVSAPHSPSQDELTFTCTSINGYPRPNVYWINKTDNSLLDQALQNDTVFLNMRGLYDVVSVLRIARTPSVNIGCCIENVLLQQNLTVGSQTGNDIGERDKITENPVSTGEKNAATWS

Rabbit TNFα = molecular target: T4, Rabbit TNFα (rabbit, UniProt P04924 80-235, limits assumed); assay: cross-reactivity binding, B of B/N; - denotes no binding/neutralisation activity observed
T4 sequence (looked up): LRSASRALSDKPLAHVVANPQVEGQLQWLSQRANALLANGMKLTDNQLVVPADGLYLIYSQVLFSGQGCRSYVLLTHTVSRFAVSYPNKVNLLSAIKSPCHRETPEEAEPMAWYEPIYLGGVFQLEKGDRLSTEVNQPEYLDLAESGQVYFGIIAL

Rat TNFα = molecular target: T5, Rat TNFα (rat, UniProt P16599 80-235); assay: as above
T5 sequence (looked up): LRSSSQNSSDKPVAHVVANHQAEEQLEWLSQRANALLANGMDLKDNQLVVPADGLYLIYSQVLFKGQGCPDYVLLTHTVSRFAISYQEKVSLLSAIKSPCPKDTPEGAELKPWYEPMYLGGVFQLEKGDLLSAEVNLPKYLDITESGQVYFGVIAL

Pig TNFα = Pig TNFα (pig, UniProt P23563 77-232); assay: as above
Sequence of Pig TNFα (P23563 77-232 limits assumed): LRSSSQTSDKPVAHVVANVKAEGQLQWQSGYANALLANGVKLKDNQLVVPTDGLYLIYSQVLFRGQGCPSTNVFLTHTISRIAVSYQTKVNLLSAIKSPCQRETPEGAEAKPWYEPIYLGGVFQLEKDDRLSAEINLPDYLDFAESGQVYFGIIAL

Mouse TNF-alpha = molecular target: T6, Mouse TNF-alpha (mouse, UniProt P06804 80-235); assay: as above
T6 construct: also called mouse TNFα
T6 sequence (looked up): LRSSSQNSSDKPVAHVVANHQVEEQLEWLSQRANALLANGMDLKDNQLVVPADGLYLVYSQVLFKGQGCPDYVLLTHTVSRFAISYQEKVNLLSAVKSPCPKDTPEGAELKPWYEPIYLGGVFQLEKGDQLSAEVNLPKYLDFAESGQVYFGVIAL

Human TNF-β = molecular target: T7, Human TNF-β (human, UniProt P01374 35-205); assay: as above
T7 construct: also called human TNFB
T7 sequence (looked up): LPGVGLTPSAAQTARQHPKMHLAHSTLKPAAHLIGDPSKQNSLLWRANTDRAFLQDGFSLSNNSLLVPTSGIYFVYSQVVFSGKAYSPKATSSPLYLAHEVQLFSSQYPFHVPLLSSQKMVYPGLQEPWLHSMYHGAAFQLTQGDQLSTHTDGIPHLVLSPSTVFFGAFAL

[3] = molecular target: T1, human Tumour Necrosis Factor alpha; assay: BLI, Octet RED96, biotinylated hTNF-α on streptavidin sensors, top concentration 1 µM
[4] = molecular target: T1, human Tumour Necrosis Factor alpha; assay: kinetics on hTNFα; instrument (BIAcore T200 or Octet) not stated for this column
human serum albumin = molecular target: T8, human serum albumin (human, UniProt P02768 25-609); assay: binding ELISA on human serum albumin (HSA), OD 450
T8 construct: also called HSA

[5] = molecular target: T1, human Tumour Necrosis Factor alpha; assay: binding ELISA on human TNF-alpha, OD 450

T1 sequence (P01375 77-233 limits assumed): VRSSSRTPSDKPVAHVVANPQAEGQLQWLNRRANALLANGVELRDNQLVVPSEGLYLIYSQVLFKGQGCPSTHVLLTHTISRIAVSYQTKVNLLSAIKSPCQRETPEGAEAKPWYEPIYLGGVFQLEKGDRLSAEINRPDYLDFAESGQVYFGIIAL

B1: SoloMER™ VNAR D1-v4 (VNAR)
VNAR: ARVDQSPSSLSASVGDRVTITCVLRDSHCATSSTYWYRKKPGSTNEESISKGGRFSGSGSSGSKSFTLTISSLQPEDFATYYCASECQYGLAEYDVFGQGTKVEIKH
notes: Humanised D1 with His tag
EC50 (read off the curve) [1]: ~0.1 mg/L

B2: VNAR-TNFR1 Fc bi-functional construct, Format 2: anti-mICOSL VNAR (CC3) (Fc fusion)
chain: TRVDQTPRTATKETGESLTINCVLTDTEYGLFSTSWFRKNPGTTDWERMSIGGRYVESVNKGAKSFSLRIKDLTVADSATYYCKALGWWPPAFPHWYDGAGTVLTVN
IC50 (read off the curve) (mouse ICOS ligand): ~0.2 mg/L

B3: TNF VNAR DIMER D1-D1 (VNAR)
chain: ARVDQTPQTITKETGESLTINCVLRDSHCATSSTYWYRKKSGSTNEESISKGGRYVETVNSGSKSFSLRINDLTVEDSGTYRCASECQYGLAEYDVYGGGTVVTVNGGGGSGGGGGSGAHSARVDQTPQTITKETGESLTINCVLRDSHCATSSTYWYRKKSGSTNEESISKGGRYVETVNSGSKSFSLRINDLTVEDSGTYRCASECQYGLAEYDVYGGGTVVTVNAAAHHHHHHGAAESKLISEEDL
EC50 (read off the curve) [2]: ~0.009 mg/L

B4: VNAR-TNFR1 Fc bi-functional construct, Format 4: anti-hICOSL VNAR (2D4) (Fc fusion)
chain: TRVDQTPRTATKETGESLTINCVLTDTDYGLFSTSWFRKNPGTTDWERMSIGGRYVESVNKGAKSFSLRIKDLTVADSATYYCKAFTWPWEWPDRWFRPWYDGAGTVLTVN
IC50 (read off the curve) (human ICOS ligand): ~0.4 mg/L

B5: TNF VNAR D1 (VNAR)
VNAR: ARVDQTPQTITKETGESLTINCVLRDSHCATSSTYWYRKKSGSTNEESISKGGRYVETVNSGSKSFSLRINDLTVEDSGTYRCASECQYGLAEYDVYGGGTVVTVNA
notes: Nurse shark VNAR single domain; also called VNAR D1 (wt); VNAR anti-hTNFa-D1
binding result (Rabbit TNFα): no binding
binding result (Rat TNFα): no binding
binding result (Pig TNFα): no binding
binding result (Mouse TNF-alpha): no binding
binding result (Human TNF-β): no binding

B6: BB10 (VNAR)
VNAR: TRVDQSPSSLSASVGDRVTITCVLTDTSYPLYSTYWYRKNPGSSNKEQISISGRYSESVNKGTKSFTLTISSLQPEDFATYYCRAMGTNFWTGDGAGTKVEIK
Kd [3]: > 1 µM

B7: TNF VNAR D1-BA11-B4 (VNAR)
chain: ARVDQTPQTITKETGESLTINCVLRDSHCATSSTYWYRKKSGSTNEESISKGGRYVETVNSGSKSFSLRINDLTVEDSGTYRCASECQYGLAEYDVYGGGTVVTVNGGGGSGGGGSGGGGSGGGGSGAHSTRVDQSPSSLSASVGDRVTITCVLTDTSYPLYSTYWYRKNPGSSNKEQISISGRYSESVNKGTKSFTLTISSLQPEDSATYYCRAMSTNIWTGDGAGTKVEIKGGGGSGGGGSGGGGSGGGGSGAHSARVDQTPQTITKETGESLTINCVLRDSNCALSSMYWYRKKSGSTNEESISKGGRYVETVNSGSKSFSLRINDLTVEDSGTYRCKVYIPCIDELVYMISGGTSGPIHDVYGGGTVVTVNHHHHHHHEQKLISEEDL
notes: Tandem VNAR trimer with anti-HSA BA11 in the middle, His and Myc tags
koff [4]: ~0.0006 s⁻¹

B8: TNF S17-Quad-X™ (Fc fusion)
chain: ASVNQTPRTATKETGESLTINCVLTDTHAKVFTTSWFRKNPGTTDWERMSIGGRYVESVNKGAKSFSLRIKDLTVADSATYICRAGGYLSQPRVYWDVYGAGTVLTVNGGGGSGGGGRTEPRGPTIKPCPPCKCPAPNLLGGPSVFIFPPKIKDVLMISLSPIVTCVVVDVSEDDPDVQISWFVNNVEVHTAQTQTHREDYNSTLRVVSALPIQHQDWMSGKEFKCKVNNKDLPAPIERTISKPKGSVRAPQVYVLPPPEEEMTKKQVTLTCMVTDFMPEDIYVEWTNNGKTELNYKNTEPVLDSDGSYFMYSKLRVEKKNWVERNSYSCSVVHEGLHNHHTTKSFSRTPGKGGGGSGGGGSGGGGSGGGGSGAHSASVNQTPRTATKETGESLTINCVLTDTHAKVFTTSWFRKNPGTTDWERMSIGGRYVESVNKGAKSFSLRIKDLTVADSATYICRAGGYLSQPRVYWDVYGAGTVLTVN
notes: S17, mouse IgG2a Fc and S17 in one chain; also called S17-Fc-S17; S17-Fc-S17 (Quad-X™)
binding result (human serum albumin): no binding (tested: 5 µg/ml)
binding result [5]: no binding (tested: 5 µg/ml)
